Measured values taken from article PMC4849473.

Experiments:
[1] = biological target: Chp1CD LOOP1B/2B, SUMO tag removed, fluorescently labelled (for MST) (fission yeast (S. pombe)) (UniProt Q10103); test: MST; 300 ng fluorescent Chp1CD (SUMO removed) in 20 μl, H3K9me3Nucleosomes titrated (0 to 2.4 μM); 10 mM Tris-HCl pH 7.5, 150 mM NaCl, 0.5 mM DTT, 0.05% Tween-20, 10% glycerol; cubic fit, Kd interpolated at 50% bound
[2] = test system: His6-SUMO-Chp1CD LOOP1B/2B (Schizosaccharomyces pombe); test: MST; conditions: H3KC9me3 methyl-lysine analog; X. laevis H2A, H2B, H3, H4; Nucleosome pull-down: 20 mM HEPES pH 7.5, 100 mM KCl, 0.5 mM DTT, 40 mM imidazole, on ice; complex assembly and RNA pull-down: 20 mM HEPES pH 7.5, 75 mM KCl, 0.

Sequence of Chp1CD LOOP1B/2B, SUMO tag removed, fluorescently labelled (for MST) (fission yeast (S. pombe)) (Q10103 15-75 N33A/N35A/W49A/Y50A/D51A): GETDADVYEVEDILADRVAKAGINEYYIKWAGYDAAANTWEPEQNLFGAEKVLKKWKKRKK

Row | fold reduction in Kd against wild-type Chp1CD [1] | Substance | binding signal (fold reduction in Kd vs wt) [2]
1 | > 5 fold | H3K9me3 methyl lysine analog (MLA) nucleosome (complex) | 
2 |  | H3K9me3 nucleosome (601) | > 5
